Experimental findings from patent US8106168B2, “Metalloproteinase binding proteins” (Dyax Corp., priority 2005, dated 2012) are described below.

The test system of experiment [1] is B16F1 melanoma lung metastases. The experiment can be described thus: B16F1 melanoma metastasis model, tail vein injection. It is filed as in vivo, mouse. The conditions noted are these: 10 mg/kg Q2d IP, 14 days; lungs taken day 15. As to the method:
MMP-14 binding antibodies were also tested in a model of melanoma metastasis. B16F1 cells were grown in culture, harvested at 85% confluence and inoculated at 5×10^5 cells/mouse in 100 μl saline by tail vein injection. Treatment started on Day 1, post inoculation, for 14 days. […] On day 15, animals were sacrificed and lungs taken, fixed, and analyzed for the number of metastases (nodules).

In experiment [2] the test system is MDA-MB-231-GFP tumors. As to the kind of experiment: MDA-MB-231-GFP orthotopic breast tumor growth and metastasis.
Protocol: Human breast cancer cells MDA-MB-231 cells transfected with green fluorescent protein (MDA-MB-231-GFP) were inoculated into the mammary fat pad of female BALB/c nu/nu mice with Matrigel. Animals were monitored for tumor growth, and at week 4-5 post tumor cell inoculation, animals with tumors of 30-50 mm^3 were selected, randomized and divided into experimental groups. […] Tumor volume was measured weekly, starting at week 5. Additionally, tissue samples of lung, liver, and spleen were taken to assess metastasis.
Animals were inoculated with MDA-MB-231-GFP cells as described above, then selected and randomized, and divided into experimental groups of 8 animals each. […] Tumor volume was measured weekly, starting at week 5.
Tumor tissue samples were collected on day 35 post-treatment for immunohistochemical analysis. Paraffin-embedded tissue samples were sectioned, stained with CD31 (Santa Cruz Biotechnology Inc., Santa Cruz, Calif., USA), Ki-67 (DAKO, Carpinteria, Calif., USA), MAPK, FAK, phosphoMAPK or phosphoFAK antibodies, visualized with biotinylated secondary antibodies using a VECTASTAIN® ABC (Vector Laboratories Inc., Burlingame, Calif., USA), and lightly counterstained with haemotoxylin.
Experiment [3] concerns the target T1, MMP14 (Mus musculus, UniProt P53690).
T1 construct: from tissue; host or cells: knee joints of C57Bl6 mice with SCW-induced arthritis (synovial cells, chondrocytes, macrophages)
The experiment can be described thus: Immunohistochemical staining in acute phase SCW-induced arthritis. The conditions noted are these: 7 days after first injection of SCW. On the procedure: Antigen-induced arthritis, a model of rheumatoid arthritis, was induced by intraarticular injection of Streptococcus cell wall (SCW, […]) into the knee joints of C57B16 mice at day 0, 7, 14 and 21.
MMP14 expression in acute phase SCW-induced arthritis (7 days after the first injection of SCW) was examined by immunohistochemical staining using M0038-F01.

For experiment [4], the system named is PC3 prostate tumors. As to the kind of experiment: PC3 prostate tumor growth. It is filed as in vivo, mouse. Particulars: M0038-F01 10, 1 or 0.1 mg/kg Q2d IP; taxotere 10 mg/kg weekly IP; A2 10 mg/kg Q2d. An excerpt: PC3 prostate cancer cells were implanted into male nude mice by subcutaneous injection.
Experiment [5] has as its system Human umbilical vascular endothelium cells (HUVECs). The experiment can be described thus: HUVEC tube formation on […]. It is filed as cell-based. The conditions noted are these: 1 nM to 250 nM; 18 hours. On the procedure:
Human umbilical vascular endothelium cells (HUVECs) were seeded into […]™ basement membrane extract-coated 96 well plates at 20,000 or 40,000 cells in 100 μl/well. The seeded cells were incubated for 30 minutes, then the various test articles were added (vehicle control, M0038-F01 at concentrations ranging from 1 nM to 250 nM, or suramin 8 mg/ml). The cells were incubated at 37° for 18 hours. 100 μl of calcein solution (8 μg/ml) was added 20 minutes prior to image capture. Tube lengths were also quantified.

The target in experiment [6] is MMP-8 (Homo sapiens, UniProt P22894). The experiment can be described thus: Cross-reactivity of anti-MMP-14 IgGs, enzymatic activity: MMP-8. It is filed as biochemical. The conditions noted are these: 1 μM anti-MMP-14 IgG. As to the method:
The cross-reactivity of exemplary anti-MMP-14 IgGs and Fabs with other human MMPs and TACE (TNF-alpha converting enzyme) was examined. MMP and TACE enzymatic activity was monitored in the absence and presence of 1 μM anti-MMP-14 IgG antibody. Inhibition (Y) of activity ranged from approximately 50-80% of the reaction rate observed in the absence of antibody. “X” indicates no inhibition was observed. Cross-reactivity was not determined for MMP-17 because protein activity could not be detected.
For the studies summarized in Table 12, six anti-MMP-14 IgGs were selected for cross-reactivity testings: M0043-G02, M0040-A06, M0037-D01, M037-C09, M0038-F01, M0033-H07.

The mark [7] stands for this setting: immunostaining of tumor tissue, day 35.

Sequence of MMP-8 (P22894 101-467): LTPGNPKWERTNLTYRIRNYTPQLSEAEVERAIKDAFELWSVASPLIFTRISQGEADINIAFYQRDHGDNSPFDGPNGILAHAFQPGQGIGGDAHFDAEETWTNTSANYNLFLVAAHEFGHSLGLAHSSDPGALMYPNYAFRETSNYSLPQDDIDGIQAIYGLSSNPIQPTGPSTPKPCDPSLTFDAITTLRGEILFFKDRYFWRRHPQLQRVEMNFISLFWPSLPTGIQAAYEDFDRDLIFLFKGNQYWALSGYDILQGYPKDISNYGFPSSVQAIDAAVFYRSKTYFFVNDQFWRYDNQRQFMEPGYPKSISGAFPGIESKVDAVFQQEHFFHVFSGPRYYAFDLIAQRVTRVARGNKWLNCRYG

B1: M0038-F01: human antibody (Fab, IgG) that binds and inhibits MMP-14; HC SEQ ID NO: 156, LC SEQ ID NO: 157 (antibody, V domains shown)
VH: EVQLLESGGGLVQPGGSLRLSCAASGFTFSLYSMNWVRQAPGKGLEWVSSIYSSGGSTLYADSVKGRFTISRDNSKNTLYLQMNSLRAEDTAVYYCARGRAFDIWGQGTMVTVSS
VL: QDIQMTQSPSSLSAFVGDKVTITCRASQSVGTYLNWYQQKAGKAPELLIYATSNLRSGVPSRFSGSGSGTDFTLTINTLQPEDFATYYCQQSYSIPRFTFGPGTKVDIK
modifications: Synthetically generated peptide
With B1, the “number of lung melanoma tumors (nodules)” value in experiment [1] is “substantially reduced the number of lung melanoma tumors”. Further, the metastases to spleen entry in experiment [2] (M0038-F01 10 mg/kg Q2d IP, DOX 5 mg/kg weekly IP) is “reduced in DOX and M0038-F01 treated animals, but the difference was not statistically significant”. Besides, the “lung and liver metastases” value in experiment [2] (M0038-F01 10 mg/kg Q2d IP, DOX 5 mg/kg weekly IP, compared to controls) is listed as “statistically significant reduction”. Also, in experiment [2] (M0038-F01 0.1, 1 or 10 mg/kg Q2d IP for 5 weeks, A2 10 mg/kg), the “tumor growth (tumor volume), dose-ranging experiment” value is “reduced in all M0038-F01 treated animals, with the 10 mg/kg dose being most effective, followed by the 1 mg/kg and 0.1 mg/kg doses”. For the same molecule, the “tumor growth (tumor volume)” value in experiment [2] (M0038-F01 or A2 10 mg/kg Q2d IP, DOX 5 mg/kg weekly IP, five weeks) is given as “substantially inhibited”. Also, in experiment [2] (setting [7]), the “CD31 and KI67 levels compared to vehicle and A2 controls” value is recorded as “statistically significant (p<0.05) reductions”; the phospho-FAK level is 4±1.2 A.U; the phospho-MAP kinase level is recorded as 2.4±0.7 A.U. Besides, the “total MAP kinase and FAK levels” value in experiment [2] (immunostaining of tumor tissue, day 35, versus control tumors) was “essentially the same as in control tumors”. Moreover, the Ki67 in experiment [2] (immunostaining of tumor tissue, day 35 post-treatment, image analysis) was 2.4 ± 1.2. Besides, the “immunohistochemical staining of joint tissue” value in experiment [3] was “strongly stained synovial cells and chondrocytes, as well as macrophages in joint exudate”. Besides, the “tumor growth (tumor volume)” value in experiment [4] was “reduced in all M0038-F01 treated animals, with the 10 mg/kg dose being most effective, followed by the 1 mg/kg and 0.1 mg/kg doses”. Besides, in experiment [5], the tube formation result is listed as “dose-dependently inhibits tube formation”.

B2: M0040-A06: human antibody (Fab, IgG) that binds and inhibits MMP-14; HC SEQ ID NO: 162, LC SEQ ID NO: 163 (antibody, V domains shown)
VH: EVQLLESGGGLVQPGGSLRLSCAASGFTFSYYGMYWVRQAPGKGLEWVSSISSSGGYTDYADSVKGRFTISRDNSKNTLYLQMNSLRAEDTAVYYCARRIKYYDIEGEGAFDIWGQGTMVTVSS
VL: QDIVMTQTPPSLPVNPGEPASISCRSSQSLLHRNGYNYLDWYLQKPGQSPQLLIHLGSYRASGVPDRFSGSGSGTDFTLKISRVEAEDVGVYYCMQPLQTPFTFGPGTKVDIK
modifications: Synthetically generated peptide
With B2, the “Cross reactivity: inhibition of MMP-8 activity” value in experiment [6] is given as “Y (Inhibition (Y) of activity ranged from approximately 50-80% of the reaction rate observed in the absence of antibody)”.
